{"source": "patent US20120207777A1", "about": "(Novartis, published 2012)", "molecular_target": "the molecule itself", "assay": "gel filtration and gel analysis with and without DTT (self-association)"}
{"protein": "Recombinant His-tagged AcfD (orf3526) from strain IHE3034 without a leader peptide (other, Expressed without the leader peptide; also called 3526 (his tag, leader peptide removed); not shown: His tag) CDGGGSGSSSDTPSVDSGSGTLPEVKPDPTPTPEPTPEPTPDPEPTPDPTPDPEPTPEPEPEPVPTKTGYLTLGGSQRVTGATCNGESSDGFTFTPGNTVSCVVGSTTIATFNTQSEAARSLRAVDKVSFSLEDAQELANSENKKTNAISLVTSSDSCPADAEQLCLTFSSVVDRARFEKLYKQIDLATDNFSKLVNEEVENNAATDKAPSTHTSTVVPVTTEGTKPDLNASFVSANAEQFYQYQPTEIILSEGQLVDSLGNGVAGVDYYTNSGRGVTDENGKFSFSWGETISFGIDTFELGSVRGNKSTIALTELGDEVRGANIDQLIHRYSTTGQNNTRVVPDDVRKVFAEYPNVINEIINLSLSNGATLDEGDQNVVLPNEFIEQFKTGQAKEIDTAICAKTDGCNEARWFSLTTRNVNDGQIQGVINKLWGVDTNYQSVSKFHVFHDSTNFYGSTGNARGQAVVNISNSAFPILMARNDKNYWLAFGEKRAWDKNELAYITEAPSIVQPENVTRDTATFNLPFISLGQVGEGKLMVIGNPHYNSILRCPNGYSWGGGVNSKGECTLSGDSDDMKHFMQNVLRYLSNDIWQPNTKSIMTVGTNLENVYFKKAGQVLGNSAPFAFHEDFTGITVKQLTSYGDLNPEEIPLLILNGFEYVTQWSGDPYAVPLRADTSKPKLTQQDVTDLIAYLNKGGSVLIMENVMSNLKEESASSFVRLLDAAGLSMALNKSVVNNDPQGYPDRVRQRRATGIWVYERYPAADGAQPPYTIDPNTGEVTWKYQQDNKPDDKPKLEVASWQEEVEGKQVTRYAFIDEAEYTTEESLEAAKAKIFEKFPGLQECKDSTYHYEINCLERRPGTDVPVTGGMYVPRYTQLNLDADTAKAMVQAADLGTNIQRLYQHELYFRTKGSKGERLNSVDLERLYQNMSVWLWNDTKYRYEEGKEDELGFKTFTEFLNCYANDAYAGGTKCSADLKKSLVDNNMIYGDGSSKAGMMNPSYPLNYMEKPLTRLMLGRSWWDLNIKVDVEKYPGSVSAKGESVTENISLYSNPTKWFAGNMQSTGLWAPAQQDVTIKSSASVPVTVTVALADDLTGREKHEVALNRPPRVTKTYTLEANGEVTFKVPYGGLIYIKGDSKDDVSANFTFTGVVKAPFYKDGEWKNDLDSPAPLGELESASFVYTTPKKNLEASNFTGGVAEFAKDLDTFASSMNDFYGRNDEDGKHRMFTYKNLTGHKHRFTNDVQISIGDAHSGYPVMNSSFSTNSTTLPTTPLNDWLIWHEVGHNAAETPLNVPGATEVANNVLALYMQDRYLGKMNRVADDITVAPEYLDESNGQAWARGGAGDRLLMYAQLKEWAEENFDIKQWYPDGELPKFYSDRKGMKGWNLFQLMHRKARGDDVGNSTFGGKNYCAESNGNAADTLMLCASWVAQADLSEFFKKWNPGASAYQLPGATEMSFQGGVSSSAYSTLASLKLPKPEKGPETINKVTEHKMSAE", "values": [{"measurement": "binding result", "value": "binds"}]}
